The record followed here is patent US20230272056A1 (Merck Sharp & Dohme, published 2023).

Substitutions are numbered along the chain they refer to.

B1: 64BLH (Fab, V domains shown)
VH: EVQLVQSGAEVKKPGASVKVSCKASGYTFTSYDMHWVRQAPGQGLEWMGRIDPQSGGIKYAQKFQGRATLTVDTSTSTAYMELSRLRSDDTAVYYCARWDYGGYFDVWGQGTLVTVSS
VL: DIQMTQSPSSLSASVGDRVTITCRASQDIYNYLNWYQQKPGKAVKLLIYYTSVLETGVPSRFSGSGSGTDYTLTISSLQPEDFATYFCQQGDTLPWTFGQGTKLEIK
notes: also called 16BLM Fab
B2: 68BLH (Fab, V domains shown)
VH: B1 VH with I58E, W99Y
VL: B1 VL with V53R
notes: also called 20BLM Fab
B3: 54BLH (Fab, V domains shown)
VH: B1 VH with K59R, Y104Q
VL: B1 VL with V53I
notes: also called 06BLM Fab
B4: 55BLH (Fab, V domains shown)
VH: B1 VH with K59R
VL: B1 VL with N31S, V53N
notes: also called 07BLM Fab
B5: 59BLH (Fab, V domains shown)
VH: B1 VH with K59R
VL: B1 VL
notes: also called 11BLM Fab
B6: 61BLH (Fab, V domains shown)
VH: B1 VH with S55T, G57D, Y104Q
VL: B1 VL with V53G
notes: also called 13BLM Fab
B7: 62BLH (Fab, V domains shown)
VH: B1 VH with M34T
VL: B1 VL with V53Y
notes: also called 14BLM Fab
B8: 58BLH (Fab, V domains shown)
VH: B1 VH with I58T
VL: B1 VL
notes: also called 10BLM Fab

T2 sequence (chain, as listed by the source limits assumed): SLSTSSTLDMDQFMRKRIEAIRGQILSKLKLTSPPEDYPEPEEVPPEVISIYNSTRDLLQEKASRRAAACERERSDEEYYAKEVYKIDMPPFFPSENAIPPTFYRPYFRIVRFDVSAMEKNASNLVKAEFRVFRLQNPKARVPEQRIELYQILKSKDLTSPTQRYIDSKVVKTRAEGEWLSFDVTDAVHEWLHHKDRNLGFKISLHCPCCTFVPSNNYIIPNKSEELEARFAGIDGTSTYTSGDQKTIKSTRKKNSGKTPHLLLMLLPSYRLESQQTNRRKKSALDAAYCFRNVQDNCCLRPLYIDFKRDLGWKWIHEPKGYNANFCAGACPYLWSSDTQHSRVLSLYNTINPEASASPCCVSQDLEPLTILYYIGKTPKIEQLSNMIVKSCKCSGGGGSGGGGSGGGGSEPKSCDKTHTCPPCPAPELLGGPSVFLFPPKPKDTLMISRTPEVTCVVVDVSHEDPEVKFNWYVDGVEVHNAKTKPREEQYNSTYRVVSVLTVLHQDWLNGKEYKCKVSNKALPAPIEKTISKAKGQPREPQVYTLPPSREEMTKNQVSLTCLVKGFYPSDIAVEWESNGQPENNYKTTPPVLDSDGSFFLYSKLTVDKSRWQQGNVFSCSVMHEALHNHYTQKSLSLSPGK
T1 sequence (chain, as listed by the source limits assumed): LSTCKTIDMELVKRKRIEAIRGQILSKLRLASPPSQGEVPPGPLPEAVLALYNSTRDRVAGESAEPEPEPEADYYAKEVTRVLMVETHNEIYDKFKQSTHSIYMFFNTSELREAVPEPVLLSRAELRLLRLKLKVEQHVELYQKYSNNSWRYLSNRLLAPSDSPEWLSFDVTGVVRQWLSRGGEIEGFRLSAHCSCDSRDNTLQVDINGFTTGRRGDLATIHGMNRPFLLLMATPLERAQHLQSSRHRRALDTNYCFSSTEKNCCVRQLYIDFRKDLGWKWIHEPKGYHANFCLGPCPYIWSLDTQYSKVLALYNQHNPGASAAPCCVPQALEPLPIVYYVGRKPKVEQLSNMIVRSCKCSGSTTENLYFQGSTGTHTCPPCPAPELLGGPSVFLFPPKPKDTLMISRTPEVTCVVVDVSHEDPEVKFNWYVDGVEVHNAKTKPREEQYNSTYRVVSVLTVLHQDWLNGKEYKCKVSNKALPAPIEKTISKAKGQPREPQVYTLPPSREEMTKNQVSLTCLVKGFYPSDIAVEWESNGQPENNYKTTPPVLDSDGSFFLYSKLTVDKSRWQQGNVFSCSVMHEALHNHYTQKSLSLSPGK

One assay addresses T1, human LAP-TGFB1 Fc fusion (human).
T1 construct: also called human LAP-TGFβ1-Fc; human LAP-TGFβ-Fc isoform 1
Description: SPR. (In general: SPR reads the build-up and loss of mass on a sensor chip optically.)
Turning to B1, the “Fold change in KD from pH 7.4 to pH 6” value is 0.3 fold.

On to B2, for which the “Fold change in KD from pH 7.4 to pH 6” value turned out to be 1.2 fold.

In the case of B3, the “Fold change in KD from pH 7.4 to pH 6” value was 1.5 fold.

B4: the “Fold change in KD from pH 7.4 to pH 6” value was 1.8 fold.

As for B5, the “Fold change in KD from pH 7.4 to pH 6” value came to 0.7 fold.

Turning to B6, the “Fold change in KD from pH 7.4 to pH 6” value was determined as 2.4 fold.

In the case of B7, the “Fold change in KD from pH 7.4 to pH 6” value amounted to 1.2 fold.

As to B8, the “Fold change in KD from pH 7.4 to pH 6” value worked out at 1.6 fold.

A further assay addresses T2, human LAP-TGFB2 Fc fusion (human).
T2 construct: also called human LAP-TGFβ2; LAP-TGFβ isoform 2
Description: SPR pH 7.4.
Turning to B1, the binding result is listed as “no binding (tested: 1000 nM Fab)”.

As for B2, the binding result is recorded as “no binding (tested: 1000 nM Fab)”.

Consider B3, for which the binding result is listed as “no binding (tested: 1000 nM Fab)”.

Regarding B4, the binding result was “no binding (tested: 1000 nM Fab)”.

In the case of B5, the binding result is given as “no binding (tested: 1000 nM Fab)”.

With B6, the binding result was “no binding (tested: 1000 nM Fab)”.

For B7, the binding result was “no binding (tested: 1000 nM Fab)”.

As for B8, the binding result is “no binding (tested: 1000 nM Fab)”.

For a further assay, the target named is T3, human LAP-TGFB3 Fc fusion (human).
T3 construct: also called human LAP-TGFβ3; LAP-TGFβ isoform 3
T3 sequence (chain, as listed by the source limits assumed): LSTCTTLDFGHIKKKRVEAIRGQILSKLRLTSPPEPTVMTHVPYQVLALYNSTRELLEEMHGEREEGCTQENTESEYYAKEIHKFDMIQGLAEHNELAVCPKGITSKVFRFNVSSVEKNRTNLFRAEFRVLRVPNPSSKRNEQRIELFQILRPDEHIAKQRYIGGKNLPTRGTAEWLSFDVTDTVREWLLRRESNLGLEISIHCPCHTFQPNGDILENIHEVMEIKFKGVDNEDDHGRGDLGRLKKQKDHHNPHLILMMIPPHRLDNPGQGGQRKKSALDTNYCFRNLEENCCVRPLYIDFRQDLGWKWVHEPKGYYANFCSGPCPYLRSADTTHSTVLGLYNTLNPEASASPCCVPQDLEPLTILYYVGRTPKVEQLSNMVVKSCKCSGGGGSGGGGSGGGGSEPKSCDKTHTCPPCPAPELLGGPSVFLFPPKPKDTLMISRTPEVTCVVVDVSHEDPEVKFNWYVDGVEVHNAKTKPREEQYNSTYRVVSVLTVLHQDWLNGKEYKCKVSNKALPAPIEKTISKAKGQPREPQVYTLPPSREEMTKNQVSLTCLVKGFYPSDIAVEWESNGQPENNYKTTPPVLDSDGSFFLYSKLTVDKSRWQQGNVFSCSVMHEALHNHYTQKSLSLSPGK
Description: SPR pH 7.4.
Regarding B1, the binding result is recorded as “no binding (tested: 1000 nM Fab)”.

For the molecule B2, the binding result is “no binding (tested: 1000 nM Fab)”.

For the molecule B3, the binding result was “no binding (tested: 1000 nM Fab)”.

Turning to B4, the binding result is “no binding (tested: 1000 nM Fab)”.

As for B5, the binding result was “no binding (tested: 1000 nM Fab)”.

In the case of B6, the binding result is on record as “no binding (tested: 1000 nM Fab)”.

For the molecule B7, the binding result is on record as “no binding (tested: 1000 nM Fab)”.

Regarding B8, the binding result is reported as “no binding (tested: 1000 nM Fab)”.

In another assay the target is T1, human LAP-TGFB1 Fc fusion. As to the kind of experiment: SPR pH 7.4, antigen captured on Fab 54BLH. From the text: A Series S C1 sensor chip (Cytiva, catalog BR100535) was immobilized with low densities of high affinity Fab 54BLH on a Biacore T200 instrument with 1×HBS-EP+(Teknova, catalog H8022). This surface served as a monovalent capture surface for a low-density layer of heterodimer human LAP-TGFβ1 complex leaving the second binding site exposed for monovalent kinetic binding analysis with both mAbs and Fabs. Immobilized flow cell 1 served as the reference and flow cells 2, 3 and 4 were used to evaluate the binding interaction between human LAP-TGFβ1 and yeast display mutant mAbs and Fabs.
Approximately 15-25 RU of human LAP-TGFβ1-Fc was captured to the Fab capture surface followed by injection of 1:3 serially diluted Fabs and mAbs from 6 nM to 0.07 nM (Fabs: 54BLH, 55BLH, 60BLH, 63BLH, 64BLH-mAbs: 69BLH, 70BLH) and 1:3 serially diluted Fab and mAbs from 60 nM to 0.74 nM (Fabs: 59BLH, 66BLH, 67BLH—mAbs: 74BLH, 75BLH, 78BLH, 79BLH, 81BLH, 82BLH) including 0 nM. The binding data was double referenced by subtraction of signal from a reference flow cell and the 0 nM injections for evaluation of Fabs and mAbs respectively. Binding rate constants were calculated/determined by fitting the data with a 1:1 binding model (Cytiva Biacore T200 Evaluation software 3.0).
As usually defined, the Kd is the concentration at which binding is half-saturated. The koff is a measure of how fast the partners let go of each other. A higher koff goes with a short-lived complex. By kon is commonly meant the rate constant with which the complex forms. High values mean fast association, low ones slow association. With B1, the Kd turned out to be 0.062 nM, the koff turned out to be 0.000939 s⁻¹ and the kon is 1.53e+07 M⁻¹ s⁻¹.

B3 came in with a Kd of 0.00477 nM, an off-rate (koff) of 3.34e-05 s⁻¹ and a kon of 7.03e+06 M⁻¹ s⁻¹.

In turn, B4 displayed a Kd of 0.125 nM, a koff of 0.00109 s⁻¹ and a kon of 8.75e+06 M⁻¹ s⁻¹.

As to B5, the affinity, expressed as Kd, was 0.044 nM; the koff stood at 0.000575 s⁻¹; the kon stood at 1.31e+07 M⁻¹ s⁻¹.

The next assay deals with T1, human LAP-TGFB1 Fc fusion. As to the kind of experiment: SPR pH 6.0, antigen captured on Fab 54BLH. In short, it runs like this:
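Human LAP-TGFβ1-Fc (~15-25 RU) captured on a low-density 54BLH Fab surface in HBS-EP+, leaving one epitope free for monovalent kinetics. Fabs/mAbs injected in 1:3 series, 6–0.07 nM or 60–0.74 nM plus 0 nM. Double-referenced; rate constants from 1:1 binding fit.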
B1 returned a Kd of 0.182 nM, a koff of 0.00194 s⁻¹ and a kon of 1.07e+07 M⁻¹ s⁻¹.

In turn, B3 yielded an equilibrium dissociation constant (Kd) of 0.0217 nM, a koff of 0.000101 s⁻¹ and a kon of 4.65e+06 M⁻¹ s⁻¹.

Molecule B4 displayed a Kd of 0.335 nM, a koff of 0.00248 s⁻¹ and a kon of 7.39e+06 M⁻¹ s⁻¹.

Consider B5, for which binding was put at a Kd of 0.179 nM, the koff was 0.00126 s⁻¹ and the kon amounted to 7.08e+06 M⁻¹ s⁻¹.

The target of the next assay is T1, human LAP-TGFB1 Fc fusion. As to the kind of experiment: SPR pH 7.4, antigen-Fc captured, Fab analyte.
With B1, the “Fold improvement in KD” value came out at 760 fold, the Kd was 0.077 nM, the koff came to 0.0005 s⁻¹ and the kon came out at 6.51e+06 M⁻¹ s⁻¹.

In the case of B2, the “Fold improvement in KD” value amounted to 134 fold, binding was put at a Kd of 0.438 nM, the koff stood at 0.00331 s⁻¹ and the kon stood at 7.57e+06 M⁻¹ s⁻¹.

In the case of B3, the “Fold improvement in KD” value was 14600 fold, the Kd came to 0.004 nM, the koff worked out at 2.07e-05 s⁻¹ and the kon came out at 4.96e+06 M⁻¹ s⁻¹.

B4: the “Fold improvement in KD” value was found to be 992 fold, the Kd was determined as 0.059 nM, the koff was found to be 0.000528 s⁻¹ and the kon came to 9.08e+06 M⁻¹ s⁻¹.

On to B5, for which the “Fold improvement in KD” value was found to be 887 fold, the Kd is 0.066 nM, the koff stood at 0.00047 s⁻¹ and the kon turned out to be 7.1e+06 M⁻¹ s⁻¹.

In the case of B6, the “Fold improvement in KD” value was determined as 4500 fold, binding was put at a Kd of 0.013 nM, the koff came out at 4.52e-05 s⁻¹ and the kon is 3.57e+06 M⁻¹ s⁻¹.

Regarding B7, the “Fold improvement in KD” value worked out at 222 fold, the Kd worked out at 0.246 nM, the koff was 0.00124 s⁻¹ and the kon is 4.69e+06 M⁻¹ s⁻¹.

As to B8, the “Fold improvement in KD” value amounted to 1100 fold, the dissociation constant (Kd) turned out to be 0.053 nM, the koff is 0.000313 s⁻¹ and the kon was found to be 5.93e+06 M⁻¹ s⁻¹.

A further assay concerns the target T1, human LAP-TGFB1 Fc fusion. As to the kind of experiment: SPR pH 6.0, antigen-Fc captured, Fab analyte. The procedure:
A Series S CM4 sensor chip (Cytiva, catalog BR100534) was immobilized with an anti-human Fc capture antibody following the kit protocol (Cytiva, catalog BR100839) on a Biacore T200 instrument with 1× HBS-EP+ (Teknova, catalog H8022). […] The binding data were double referenced by subtraction of signal from a reference (capture surface only) flow cell and the 0 nM Fab injection. Binding rate constants were determined by fitting the data with a 1:1 binding model (Cytiva Biacore T200 Evaluation software 3.0).
For the molecule B1, the affinity, expressed as Kd, was 0.024 nM; the koff came out at 0.000843 s⁻¹; the kon was 3.49e+07 M⁻¹ s⁻¹.

On to B2, for which binding was put at a Kd of 0.508 nM, the koff turned out to be 0.00454 s⁻¹ and the kon came out at 8.94e+06 M⁻¹ s⁻¹.

Regarding B3, the Kd is 0.006 nM, the koff was 4.73e-05 s⁻¹ and the kon is 7.56e+06 M⁻¹ s⁻¹.

The molecule B4 returned a Kd of 0.105 nM, a koff of 0.000757 s⁻¹ and a kon of 7.17e+06 M⁻¹ s⁻¹.

As to B5, the Kd stood at 0.049 nM, the koff stood at 0.000543 s⁻¹ and the on-rate (kon) is 1.11e+07 M⁻¹ s⁻¹.

B6 had a Kd of 0.031 nM, a koff of 0.000121 s⁻¹ and an on-rate constant (kon) of 3.91e+06 M⁻¹ s⁻¹.

B7: the Kd stood at 0.29 nM, the koff came out at 0.00168 s⁻¹ and the kon was 5.8e+06 M⁻¹ s⁻¹.

With B8, binding was characterised by a dissociation constant (Kd) of 0.086 nM, the koff came to 0.000591 s⁻¹ and the kon is 6.88e+06 M⁻¹ s⁻¹.

The next assay has as its target T1, human LAP-TGFB1 Fc fusion. Description: SPR pH 7.4, antigen-Fc captured, Fab analyte. The source holds these as a separate data set.
For B1, the affinity, expressed as Kd, was 0.077 nM; the koff was 0.0005 s⁻¹; the association rate constant (kon) was 6.51e+06 M⁻¹ s⁻¹.

On to B2, for which the Kd was 0.438 nM, the koff is 0.00331 s⁻¹ and the kon stood at 7.57e+06 M⁻¹ s⁻¹.

The molecule B3 came in with a Kd of 0.004 nM, a koff of 2.07e-05 s⁻¹ and a kon of 4.96e+06 M⁻¹ s⁻¹.

For B4, binding was characterised by a dissociation constant (Kd) of 0.059 nM, the koff amounted to 0.000528 s⁻¹ and the kon came to 9.08e+06 M⁻¹ s⁻¹.

For B5, the Kd worked out at 0.066 nM, the koff was determined as 0.00047 s⁻¹ and the kon was found to be 7.1e+06 M⁻¹ s⁻¹.

The molecule B6 showed a Kd of 0.013 nM, a koff of 4.52e-05 s⁻¹ and a kon of 3.57e+06 M⁻¹ s⁻¹.

Molecule B7 had a Kd of 0.246 nM, a koff of 0.00124 s⁻¹ and a kon of 4.69e+06 M⁻¹ s⁻¹.

In turn, B8 yielded a Kd of 0.053 nM, a koff of 0.000313 s⁻¹ and a kon of 5.93e+06 M⁻¹ s⁻¹.
